Experimental data published in publication PMC3416860, “TC10 Is Regulated by Caveolin in 3T3-L1 Adipocytes” (PLoS ONE, 2012).

Experiments:
GST-TC10 [1] = target: T1, GST-TC10 (Homo sapiens, UniProt P17081); experiment: radioligand binding to GST-fusion on glutathione-agarose; settings: 10 mM MgCl2, pH 7.5, room temperature, labelled compound
T1 construct: gene RHOQ; GST fusion (GST kept), expressed in E. coli Rosetta-gami (DE3), glutathione-agarose purified; plasmid from I. Macara

[2] = target: myc-Caveolin 1 wild-type (pKMyc-Caveolin 1) (UniProt Q03135); experiment: co-IP; COS-1 cells co-transfected with myc-Caveolin 1 and HA-TC10 plasmids; lysed in HNTG buffer (50 mM HEPES pH 7.4, 150 mM NaCl, 10% glycerol, 1% Triton X-100); immunoprecipitated with anti-myc antibodies and Protein A/G beads, blotted for HA
GST-TC10 [3] = target: T2, GST-TC10 (human, UniProt P17081 1-205); experiment: pull-down; GST-TC10 on glutathione-agarose beads, preincubated with nucleotides as indicated (GDP or a nonhydrolyzable GTP analog), used to precipitate proteins from a 3T3-L1 adipocyte lysate; blot with anti-Caveolin antibodies; settings: one partner purified
T2 construct: TC10 (RhoQ); Expression plasmid obtained from Dr. Ian Macara; Used as purified (with endogenous GDP) or preincubated with GDP or a nonhydrolyzable GTP analog; also called TC10-GDP; source: E. coli Rosetta-gami (DE3), purified (glutathione-agarose)

GST-TC10 [4] = target: T2, GST-TC10; experiment: pull-down; purified MBP-Caveolin 1(1-99) and GST-TC10 incubated with GDP overnight at 4 C; glutathione agarose 1 h, washed, eluted in SDS sample buffer; blots with anti-GST or anti-MBP; settings: both partners purified

T2 sequence (P17081 whole entry): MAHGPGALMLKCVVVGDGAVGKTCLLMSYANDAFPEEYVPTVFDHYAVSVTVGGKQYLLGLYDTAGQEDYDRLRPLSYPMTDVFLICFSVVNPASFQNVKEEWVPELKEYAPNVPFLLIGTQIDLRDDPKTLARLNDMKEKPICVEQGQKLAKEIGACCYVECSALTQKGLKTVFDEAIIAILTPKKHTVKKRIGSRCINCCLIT
T1 sequence (P17081 whole entry, the tested form may be a part): as the sequence (P17081 whole entry) above

## Nc1nc2c(ncn2[C@@H]2O[C@H](COP(=O)(O)OP(=O)(O)OP(O)(O)=S)[C@@H](O)[C@H]2O)c(=O)[nH]1 [GTPγS]
GST-TC10 [1]
  radioligand binding to GST-fusion on glutathione-agarose: incubated radiolabeled GTPγS with recombinant GST, GST-TC10 or GST-Cdc42

## HA-TC10 T31N (pKH3-TC10 T31N), dominant-interfering mutant (natural protein)
[2]
  fold interaction against the constitutively active allele (Q75L): > 10 fold

## HA-TC10 Y37A/Y46A (pKH3-TC10 Y37A/Y46A) (natural protein)
[2]
  percent decrease of co-immunoprecipitation against wild-type TC10: > 75%

B1: Caveolin 1, endogenous in 3T3-L1 adipocytes (natural protein, mouse (endogenous in 3T3-L1), UniProt P49817 1-178, looked up)
chain: MSGGKYVDSEGHLYTVPIREQGNIYKPNNKAMADEVTEKQVYDAHTKEIDLVNRDPKHLNDDVVKIDFEDVIAEPEGTHSFDGIWKASFTTFTVTKYWFYRLLSTIFGIPMALIWGIYFAILSFLHIWAVVPCIKSFLIEIQCISRVYSIYVHTFCDPLFEAIGKIFSNIRISTQKEI
notes: Caveolin 1, endogenous, detected with anti-Caveolin antibodies; source: endogenous, 3T3-L1 adipocyte lysate
GST-TC10 [3]
  fold enhancement of the interaction after GDP binding: ~2 fold

B2: MBP-Caveolin 1(1-99) (domain or fragment, UniProt Q03135 1-99, looked up)
chain: MSGGKYVDSEGHLYTVPIREQGNIYKPNNKAMADELSEKQVYDAHTKEIDLVNRDPKHLNDDVVKIDFEDVIAEPEGTHSFDGIWKASFTTFTVTKYWF
notes: Caveolin 1, the first 99 amino acids; The vector may add further tags and a TEV site; source: E. coli Rosetta-gami (DE3), purified (amylose resin)
GST-TC10 [4]
  fold precipitated with TC10-GDP against GTP analog bound TC10: > 4 fold
